Data reported in article PMC7691350, “Integron gene cassettes harboring novel variants of D-alanine-D-alanine ligase confer high-level resistance to D-cycloserine” (Scientific Reports, 2020).
Read-outs that look alike come from different tables or passages of the source.

Key:
[1] = system: Nc1ncnc2c1ncn2[C@@H]1O[C@H](COP(=O)(O)OP(=O)(O)OP(=O)(O)O)[C@@H](O)[C@H]1O; assay: purified protein; settings: 100 mM D-alanine, ATP 5-320 µM, 10 mM MgCl2, 10 mM KCl, 100 mM HEPES pH 7.5, 37 °C
C[C@@H](N)C(=O)O = assay: purified protein; settings: second D-alanine binding, 500 µM ATP, 10 mM MgCl2, 10 mM KCl, 100 mM HEPES pH 7.5, 37 °C
Ddl6 = assay: PK/LDH-coupled spectrophotometric assay, […] nm; assay type: biochemical; settings: 10 mM MgCl2, 10 mM KCl, 100 mM HEPES pH 7.5, 37 °C

With DdlAEc (Escherichia coli K-12) the Km [1] was 48.99 µM, the Km (C[C@@H](N)C(=O)O) was 0.52 mM and the kcat (C[C@@H](N)C(=O)O) was 6.43 s⁻¹. The kcat/Km (C[C@@H](N)C(=O)O) was 12500 M⁻¹ s⁻¹.
In the case of `Nc1ncnc2c1ncn2[C@@H]1O[C@H](COP(=O)(O)OP(=O)(O)OP(=O)(O)O)[C@@H](O)[C@H]1O` [ATP], the Km (Ddl6; read-out: Km, ATP, 100 mM D-alanine, ATP 5-320 µM) is reported as 55 µM.
DdlTd (Treponema denticola ATCC 35405) was tested, and the Km [1] was 19.08 µM, the Km (C[C@@H](N)C(=O)O) was 0.45 mM and the kcat (C[C@@H](N)C(=O)O) was 3.74 s⁻¹. The kcat/Km (C[C@@H](N)C(=O)O) was 8290 M⁻¹ s⁻¹.
`C[C@@H](N)C(=O)O` [D-alanine] showed a Km (Ddl6; second D-alanine binding, 500 µM ATP, read-out: Km, D-ala2) of 390 µM.
